In publication PMC5053661, “Human papillomavirus oncogenic E6 protein regulates human β-defensin 3 (hBD3) expression via the tumor suppressor protein p53”:

B1: hBD3 promoter -1339 p53 probe (dsDNA)
DNA 1: TGACTGTCTGCCCATCTACCTGGCCCTACAT
DNA 2: ATGTAGGGCCAGGTAGATGGGCAGACAGTCA
B2: hBD3 -1339 mutant probe (dsDNA)
DNA 1: TGACTGTCGACCCATCTACCTGGCCCTAAATTG
DNA 2: CAATTTAGGGCCAGGTAGATGGGTCGACAGTCA

Biological target: p53 (UniProt P04637 1-393)
Assay: EMSA; 100 ng p53, 100 nM probe; EMSA: 100 ng recombinant p53, 100 nM annealed biotin probe; binding buffer, salt, pH and temperature not given (ref 63)
Settings: protein: commercial, chain copies: 4, label: 3'-biotin

Chain of p53 (P04637 whole entry): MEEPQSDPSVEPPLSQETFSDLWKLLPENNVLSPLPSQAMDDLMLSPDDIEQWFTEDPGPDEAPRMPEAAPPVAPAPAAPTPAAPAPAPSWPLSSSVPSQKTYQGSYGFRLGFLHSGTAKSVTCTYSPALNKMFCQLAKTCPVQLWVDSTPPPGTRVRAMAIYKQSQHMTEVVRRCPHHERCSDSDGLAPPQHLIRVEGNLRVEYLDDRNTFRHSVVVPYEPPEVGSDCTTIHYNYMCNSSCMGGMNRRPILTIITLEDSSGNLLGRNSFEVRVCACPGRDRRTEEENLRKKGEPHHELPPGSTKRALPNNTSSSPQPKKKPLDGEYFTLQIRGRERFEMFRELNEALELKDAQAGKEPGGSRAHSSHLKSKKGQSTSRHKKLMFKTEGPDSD

Row | Binder | binding result
1 | B1 | binds
2 | B2 | no binding
